The values that follow come from US20110311551A1 (INSERM, published 2011).

Experiment [1] addresses T1, E2 region 480-494, PDQRPYCWHYPPKPC (Hepatitis C virus).
T1 construct: also called E2 480-494; regions 480-494 of E2 as pentadecapeptide
T1 peptide: PDQRPYCWHYPPKPC
Description: ELISA with pentadecapeptides. Background: In an ELISA, binding on a coated surface is turned into a signal by an enzyme label.

The next experiment deals with T2, human serum albumin (human, UniProt P02768 25-609).
T2 construct: also called HSA
T2 sequence (P02768 25-609 limits assumed): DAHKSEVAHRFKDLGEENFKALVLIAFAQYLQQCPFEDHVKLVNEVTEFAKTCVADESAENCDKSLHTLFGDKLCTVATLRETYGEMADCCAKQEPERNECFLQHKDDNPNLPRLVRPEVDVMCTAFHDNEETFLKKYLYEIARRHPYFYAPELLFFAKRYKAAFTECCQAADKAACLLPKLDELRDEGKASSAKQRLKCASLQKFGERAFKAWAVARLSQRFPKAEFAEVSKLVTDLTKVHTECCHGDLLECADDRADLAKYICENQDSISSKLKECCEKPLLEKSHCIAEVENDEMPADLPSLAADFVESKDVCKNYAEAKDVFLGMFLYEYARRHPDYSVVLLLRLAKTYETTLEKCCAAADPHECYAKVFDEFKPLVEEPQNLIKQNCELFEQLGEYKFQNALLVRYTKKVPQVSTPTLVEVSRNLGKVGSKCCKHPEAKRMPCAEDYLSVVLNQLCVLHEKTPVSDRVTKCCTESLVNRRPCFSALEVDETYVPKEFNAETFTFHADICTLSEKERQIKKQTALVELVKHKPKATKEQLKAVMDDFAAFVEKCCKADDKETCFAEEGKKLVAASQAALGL
Kind of experiment: EIA.

Experiment [2] addresses T3, peptides corresponding to the E2 region 686-697 (Hepatitis C virus).
T3 construct: 686-697 was counted over to 2-13 on that entry; also called E2 686-697
T3 peptide: STGLIHLHQNIV
Description: overlapping synthetic pentadecapeptides on a membrane, colorimetric immunoassay.

Experiment [3] addresses T4, peptides corresponding to the E2 region 612-626 (Hepatitis C virus).
T4 construct: 612-626 was counted over to 3-17 on that entry; also called E2 612-626
T4 peptide: PYRLWHYPCTINYTI
Described as above.

Experiment [4] concerns the target T5, peptides corresponding to the 347-356 E1 region (Hepatitis C virus).
T5 construct: 347-356 was counted over to 5-14 on that entry; Made as overlapping pentadecapeptides on a membrane; also called E1 347-356
Described as above.

Experiment [5] concerns the target T6, E2 region 613-621, YRLWHYPCT (Hepatitis C virus).
T6 construct: Region found with overlapping octapeptides; also called E2 613-621
T6 peptide: YRLWHYPCT
Description: overlapping octapeptides.

The target in experiment [6] is T7, E1 region 297-306, RHWTTQGCNC (Hepatitis C virus).
T7 construct: Region found with overlapping octapeptides; also called E1 297-306
T7 peptide: RHWTTQGCNC
Kind of experiment: overlapping octapeptides.

For experiment [7], the target named is T8, E2 octapeptide 487-494, WHYPPKPC (Hepatitis C virus).
T8 peptide: WHYPPKPC
Description: octapeptides.

The target of experiment [8] is T9, E2 octapeptide 479-486, GPDQRPYC (Hepatitis C virus).
T9 peptide: GPDQRPYC
Kind of experiment: octapeptides.

B1: monoclonal antibody D32.10 (antibody, V domains shown)
VH: EVQLQQSGAELVKPGASVKLSCTPSGFNIKDTYIHWVKQRPEQGLEWIGMINPANGNSNYDPKFQDKATITADTSSNTAYLQLSSLTSEDTAVYYCAEITTDFDVWGAGTTVTVSS
VL: NIVLTQSPPSLAVSLGQRATISCRASESVDSYGNSFLHWYQQKSGQPPKLLIYLASNLESGVPARFSGSGSRTDFTLTIDPLEADDAATYYCQQNNEAPFTFGSGTKLEIKR
notes: also called mAb D32.10; MAb D32.10
As for B1, the binding result in experiment [1] is recorded as “binds”; with human serum albumin, “no binding”; in experiment [2] it was “no binding”; in [3], “binds”; in experiment [4], “no binding”; in experiment [5], “binds”. Moreover, the binding result in [6], in experiment [7] and in experiment [8] was “binds” in each case.
